From the supplement of paper PMC9112550, “Optimization of the antimicrobial peptide Bac7 by deep mutational scanning” (BMC Biology, 2022)

system: Escherichia coli TOP10; test: shrunken log2 fold change of peptide-encoding DNA abundance (4.5 h post-induction vs induction); higher = less antimicrobial activity (less host growth inhibition); conditions: time post-induction: 4.5 h; library: site-saturation at positions 5, 18, 19, 20
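Note: peptides expressed intracellularly from a pBAD plasmid library in pooled LB shake-flask culture, induced with 0.3% L-arabinose, DNA abundance read by NGS, three biological replicates, DESeq2 with apeglm shrinkage.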

| Sequence | shrunken log2 fold change |
| --- | --- |
| RRIRCRPPRLPRPRPRPYFPPRP | -0.513 |
| RRIRKRPPRLPRPRPRPNMWPRP | -0.109 |
| RRIRPRPPRLPRPRPRPNCNPRP | -0.518 |
| RRIRKRPPRLPRPRPRPRSYPRP | -0.134 |
| RRIRERPPRLPRPRPRPDRHPRP | -0.0302 |
| RRIRERPPRLPRPRPRPVSDPRP | -0.26 |
| RRIRPRPPRLPRPRPRPMLTPRP | -0.333 |
| RRIRKRPPRLPRPRPRPVLIPRP | -0.141 |
| RRIRVRPPRLPRPRPRPTIQPRP | -0.526 |
| RRIRLRPPRLPRPRPRPLEFPRP | -0.252 |
| RRIRYRPPRLPRPRPRPSINPRP | -0.39 |
| RRIRWRPPRLPRPRPRPAGKPRP | 0.0305 |
| RRIRLRPPRLPRPRPRPQICPRP | -0.0895 |
| RRIRSRPPRLPRPRPRPDYGPRP | -0.0953 |
| RRIRARPPRLPRPRPRPIKVPRP | -0.104 |
| RRIRMRPPRLPRPRPRPHVGPRP | 0.105 |
| RRIRTRPPRLPRPRPRPTQHPRP | 0.22 |
| RRIRMRPPRLPRPRPRPGYCPRP | 0.0615 |
| RRIRNRPPRLPRPRPRPKVQPRP | 0.341 |
| RRIRIRPPRLPRPRPRPLPSPRP | -0.0327 |
| RRIRARPPRLPRPRPRPSHKPRP | 0.0213 |
| RRIRSRPPRLPRPRPRPTWSPRP | -0.0422 |
| RRIRGRPPRLPRPRPRPATCPRP | 0.512 |
| RRIRHRPPRLPRPRPRPAKSPRP | 0.076 |
| RRIRPRPPRLPRPRPRPFSFPRP | -0.0166 |

| Sequence | shrunken log2 fold change |
| --- | --- |
| RRIRERPPRLPRPRPRPDETPRP | -0.015 |
| RRIRNRPPRLPRPRPRPRDQPRP | -0.0345 |
| RRIRHRPPRLPRPRPRPDSHPRP | -0.0191 |
| RRIRHRPPRLPRPRPRPDRNPRP | -0.0482 |
| RRIRFRPPRLPRPRPRPVARPRP | 0.0942 |
| RRIRVRPPRLPRPRPRPHGPPRP | -0.156 |
| RRIRPRPPRLPRPRPRPALAPRP | 0.412 |
| RRIRQRPPRLPRPRPRPTSIPRP | -0.18 |
| RRIRSRPPRLPRPRPRPWINPRP | -0.205 |
| RRIRKRPPRLPRPRPRPMSSPRP | 0.0811 |
| RRIRSRPPRLPRPRPRPYANPRP | -0.185 |
| RRIRPRPPRLPRPRPRPMVPPRP | 0.18 |
| RRIRQRPPRLPRPRPRPWFSPRP | -0.102 |
| RRIRARPPRLPRPRPRPDWWPRP | 0.608 |
| RRIRGRPPRLPRPRPRPMTVPRP | 0.0506 |
| RRIRVRPPRLPRPRPRPDNAPRP | -0.501 |
| RRIRARPPRLPRPRPRPRPQPRP | 0.731 |
| RRIRYRPPRLPRPRPRPISDPRP | -0.237 |
| RRIRIRPPRLPRPRPRPMGRPRP | 0.126 |
| RRIRMRPPRLPRPRPRPTIQPRP | 0.318 |
| RRIRARPPRLPRPRPRPRKGPRP | 0.365 |
| RRIRVRPPRLPRPRPRPITRPRP | -0.0188 |
| RRIRIRPPRLPRPRPRPDMQPRP | -0.0983 |
| RRIRGRPPRLPRPRPRPNYKPRP | 0.211 |
| RRIRWRPPRLPRPRPRPSQIPRP | -0.165 |

| Sequence | shrunken log2 fold change |
| --- | --- |
| RRIRPRPPRLPRPRPRPFYPPRP | -0.854 |
| RRIRIRPPRLPRPRPRPQLKPRP | -0.456 |
| RRIRERPPRLPRPRPRPWSEPRP | -0.398 |
| RRIRARPPRLPRPRPRPNYRPRP | 0.0835 |
| RRIRRRPPRLPRPRPRPQQHPRP | -0.0327 |
| RRIRVRPPRLPRPRPRPMTKPRP | 0.0648 |
| RRIRCRPPRLPRPRPRPDPNPRP | -0.00486 |
| RRIRHRPPRLPRPRPRPPNFPRP | -0.00427 |
| RRIRSRPPRLPRPRPRPPGDPRP | 0.344 |
| RRIRTRPPRLPRPRPRPCACPRP | 0.0169 |
| RRIRWRPPRLPRPRPRPKLQPRP | 0.182 |
| RRIRMRPPRLPRPRPRPPKMPRP | 0.477 |
| RRIRLRPPRLPRPRPRPDPMPRP | -0.00264 |
| RRIRYRPPRLPRPRPRPYNPPRP | -0.256 |
| RRIRQRPPRLPRPRPRPFTFPRP | -0.249 |
| RRIRNRPPRLPRPRPRPYSQPRP | -0.0488 |
| RRIRTRPPRLPRPRPRPPQCPRP | 0.0145 |
| RRIRCRPPRLPRPRPRPPEHPRP | 0.0824 |
| RRIRLRPPRLPRPRPRPRYRPRP | -0.374 |
| RRIRRRPPRLPRPRPRPCLPPRP | -0.132 |
| RRIRARPPRLPRPRPRPAAVPRP | 0.8 |
| RRIRCRPPRLPRPRPRPCAMPRP | -0.103 |
| RRIRKRPPRLPRPRPRPYGIPRP | -0.329 |
| RRIRERPPRLPRPRPRPWLAPRP | 0.564 |
| RRIRIRPPRLPRPRPRPEEGPRP | -0.05 |

| Sequence | shrunken log2 fold change |
| --- | --- |
| RRIRKRPPRLPRPRPRPGPWPRP | 0.63 |
| RRIRWRPPRLPRPRPRPCHGPRP | 0.0694 |
| RRIRVRPPRLPRPRPRPYEPPRP | -1.29 |
| RRIRPRPPRLPRPRPRPIMGPRP | -0.233 |
| RRIRYRPPRLPRPRPRPDYKPRP | -0.136 |
| RRIRTRPPRLPRPRPRPNMEPRP | 0.343 |
| RRIRGRPPRLPRPRPRPFPKPRP | 0.0687 |
| RRIRIRPPRLPRPRPRPIMQPRP | -0.557 |
| RRIRDRPPRLPRPRPRPSGAPRP | 0.0348 |
| RRIRNRPPRLPRPRPRPVWHPRP | -0.154 |
| RRIRIRPPRLPRPRPRPETIPRP | -0.115 |
| RRIRMRPPRLPRPRPRPAHPPRP | 0.296 |
| RRIRLRPPRLPRPRPRPMMGPRP | -0.0316 |
| RRIRHRPPRLPRPRPRPMKTPRP | -0.0218 |
| RRIRLRPPRLPRPRPRPAPEPRP | 0.109 |
| RRIRCRPPRLPRPRPRPIRQPRP | -0.0914 |
| RRIRMRPPRLPRPRPRPPITPRP | -0.109 |
| RRIRMRPPRLPRPRPRPLPLPRP | 0.718 |
| RRIRIRPPRLPRPRPRPQITPRP | -1.22 |
| RRIRRRPPRLPRPRPRPLHWPRP | 0.235 |
| RRIRGRPPRLPRPRPRPGKEPRP | 0.225 |
| RRIRTRPPRLPRPRPRPMHIPRP | -0.158 |
| RRIRNRPPRLPRPRPRPGCDPRP | -0.0442 |
| RRIRRRPPRLPRPRPRPNDWPRP | 0.24 |
| RRIRDRPPRLPRPRPRPGGIPRP | 0.129 |

| Sequence | shrunken log2 fold change |
| --- | --- |
| RRIRWRPPRLPRPRPRPTDSPRP | -0.195 |
| RRIRLRPPRLPRPRPRPLMCPRP | -0.422 |
| RRIRCRPPRLPRPRPRPTPWPRP | 0.49 |
| RRIRWRPPRLPRPRPRPEEQPRP | 0.149 |
| RRIRSRPPRLPRPRPRPFVGPRP | -0.222 |
| RRIRARPPRLPRPRPRPMSAPRP | 0.361 |
| RRIRSRPPRLPRPRPRPSDFPRP | -0.536 |
| RRIRERPPRLPRPRPRPEEQPRP | 0.221 |
| RRIRGRPPRLPRPRPRPCKNPRP | 0.397 |
| RRIRRRPPRLPRPRPRPNFGPRP | 0.105 |
| RRIRKRPPRLPRPRPRPRANPRP | 0.588 |
| RRIRRRPPRLPRPRPRPNDFPRP | -0.189 |
| RRIRHRPPRLPRPRPRPHGVPRP | 0.00355 |
| RRIRNRPPRLPRPRPRPGRYPRP | 0.00112 |
| RRIRWRPPRLPRPRPRPCVGPRP | 0.352 |
| RRIRRRPPRLPRPRPRPVRTPRP | 0.328 |
| RRIRERPPRLPRPRPRPPSVPRP | -0.126 |
| RRIRGRPPRLPRPRPRPFHDPRP | -0.0838 |
| RRIRMRPPRLPRPRPRPQETPRP | -0.00161 |
| RRIRSRPPRLPRPRPRPSTSPRP | -0.455 |
| RRIRYRPPRLPRPRPRPFHFPRP | -0.19 |
| RRIRNRPPRLPRPRPRPITCPRP | -0.166 |
| RRIRIRPPRLPRPRPRPAAKPRP | 0.463 |
| RRIRQRPPRLPRPRPRPYCWPRP | -0.554 |
| RRIRQRPPRLPRPRPRPYFGPRP | -0.305 |

| Sequence | shrunken log2 fold change |
| --- | --- |
| RRIRLRPPRLPRPRPRPAVDPRP | 0.163 |
| RRIRNRPPRLPRPRPRPCKMPRP | -0.00674 |
| RRIRTRPPRLPRPRPRPEVNPRP | 0.131 |
| RRIRLRPPRLPRPRPRPPITPRP | -0.213 |
| RRIRCRPPRLPRPRPRPEHCPRP | -0.0294 |
| RRIRRRPPRLPRPRPRPMQVPRP | -0.198 |
| RRIRRRPPRLPRPRPRPGTDPRP | 0.0719 |
| RRIRSRPPRLPRPRPRPYHPPRP | -0.00174 |
| RRIRQRPPRLPRPRPRPQMHPRP | -0.168 |
| RRIRPRPPRLPRPRPRPQNTPRP | -0.407 |
| RRIRMRPPRLPRPRPRPWIIPRP | -0.0943 |
| RRIRIRPPRLPRPRPRPVFLPRP | -0.51 |
| RRIRRRPPRLPRPRPRPDARPRP | 0.553 |
| RRIRIRPPRLPRPRPRPTRNPRP | -0.268 |
| RRIRRRPPRLPRPRPRPRSEPRP | 0.342 |
| RRIRYRPPRLPRPRPRPWSRPRP | -0.205 |
| RRIRPRPPRLPRPRPRPSAKPRP | 0.528 |
| RRIRHRPPRLPRPRPRPLFDPRP | -0.692 |
| RRIRKRPPRLPRPRPRPAHNPRP | 0.473 |
| RRIRLRPPRLPRPRPRPNNHPRP | -0.761 |
| RRIRLRPPRLPRPRPRPQCYPRP | -0.172 |
| RRIRERPPRLPRPRPRPDDLPRP | 0.00911 |
| RRIRYRPPRLPRPRPRPDEMPRP | 0.0412 |
| RRIRHRPPRLPRPRPRPQADPRP | -0.139 |
| RRIRVRPPRLPRPRPRPNYWPRP | -0.307 |
